{"source": "patent US20220305056A1", "about": "(Janssen / Centocor, published 2022)", "binders": {"B1": {"name": "CEN-63-13 mAb (antibody, human IgG1, V domains shown)", "VH": "QSVKESGGRLVTPGTPLTLTCTVSGFSLSSNAIDWVRQAPGKGLEWIGILGRSGSTYYASWAKGRFTISRTSSTTVDLKITSPTTEDTATYFCARHFYLWGPGTLVTVSS", "VL": "AQVLTQTASPVSAAVGGTVTINCQASQSVYSNYLSWYQQKPGQPPKLLMATTSTLEPGVPSRFKGSGSGTQFTLTISDLECDDAATYYCAGGYSVDIWVFGGGTEVVVKR", "notes": "also called CEN-63 C13; CEN-63 C13 anti-G4S antibody"}}, "key": {"[1]": {"molecular_target": "T1, H3-23/L1-39 scFv with (G4S)4 peptide linker", "T1 construct": "also called inert scFv", "test": "bio-layer interferometry"}, "[2]": {"molecular_target": "T2, immobilized scFv containing a G4S linker", "T2 construct": "Antigen coated on the ELISA plate at 0.1 ug/mL", "test": "ELISA and flow cytometry (FIGS. 2 and 3)", "procedure": "Plates were washed 3 times with PBS. […] Plates were washed 3 times with PBS. […] Optical density at 450 nm was measured on (SpectraMax M5, Molecular Devices; San Jose, Calif.). Data was analyzed in GraphPad Prism software (Graphpad).\nHEK293-T cells were cultured in standard DMEM with (Dulbecco's Modified Eagle's Medium Components comprising glucose, L-glutamine, NaHCO₃, and phenol red). Transfection of cells with mRNA for linker containing scFv protein constructs was carried out following manufacturer's protocol (MessengerMax, Invitrogen). 5 μg of IVT synthesized mRNA was transfected in HEK293-T cells at a density of 1×10⁶ cells/mL and incubated 24 hours prior to flow cytometry analysis. Cells were added to 96 well U bottom plates at a concentration of 100,000 cells/well. Plates were spun at 300 g for 3 minutes and supernatant was discarded. Sytox green (Invitrogen) Live/Dead stain was added to the cells and incubated for 10 minutes at room temperature in a dark chamber. The cells were washed twice with PBS, and the supernatant was discarded. A 12 point 1:3 serial dilution with a starting concentration of 100 nM of primary antibody was prepared. The dilution series was added to cells and incubated for 1 hour at 4° C. in the dark. Plates were spun at 300 g for 3 minutes, the supernatants discarded, and cells washed twice with FACS running buffer (Becton Dickinson (BD), Franklin Lakes, N.J.). […]"}, "[3]": {"molecular_target": "T3, SEQ ID NO 49 (also: biotinylated)", "T3 construct": "Truncation variant of the (G4S)4 linker; also called truncated G4S peptide", "T3 peptide": "GGGGSGGGGSGGGGSG", "test": "bio-layer interferometry, truncated peptide panel", "experimental": "(§1) All reactions were performed at 25° C. in 1× kinetics buffer (ForteBio; Fremont, Calif.). Data were collected with Octet Data Acquisition program (ForteBio) and analyzed using Octet Data Analysis program (ForteBio)."}, "[4]": {"molecular_target": "T4, SEQ ID NO 50 (not fully specified; also: biotinylated)", "T4 construct": "Truncation variant of the (G4S)4 linker; also called truncated G4S peptide; L6", "T4 peptide": "GGGGSGGGGSGGGGS", "test": "bio-layer interferometry, truncated peptide panel", "experimental": "as §1"}, "[5]": {"molecular_target": "T5, SEQ ID NO 51 (also: biotinylated)", "T5 construct": "Truncation variant of the (G4S)4 linker; also called truncated G4S peptide", "T5 peptide": "GGGGSGGGGSGGGG", "test": "bio-layer interferometry, truncated peptide panel", "experimental": "as §1"}, "[6]": {"molecular_target": "T6, SEQ ID NO 52 (also: biotinylated)", "T6 construct": "Truncation variant of the (G4S)4 linker; also called truncated G4S peptide", "T6 peptide": "GGGGSGGGGSGGG", "test": "bio-layer interferometry, truncated peptide panel", "experimental": "as §1"}, "[7]": {"molecular_target": "T7, SEQ ID NO 53 (not fully specified; also: biotinylated)", "T7 construct": "Truncation variant of the (G4S)4 linker; also called truncated G4S peptide", "T7 peptide": "GGGGSGGGGSGG", "test": "bio-layer interferometry, truncated peptide panel", "experimental": "as §1"}, "[8]": {"molecular_target": "T8, 10-mer peptide (SEQ ID NO:55) (also: biotinylated)", "T8 construct": "Truncation variant of the (G4S)4 linker; smallest linker detected by CEN-63-13; also called smallest linker", "T8 peptide": "GGGGSGGGGS", "test": "bio-layer interferometry, truncated peptide panel", "experimental": "as §1"}, "[9]": {"molecular_target": "T9, SEQ ID NO 46 (also: biotinylated)", "T9 construct": "Truncation variant of the (G4S)4 linker; also called truncated G4S peptide", "T9 peptide": "GGGGSGGGGSGGGGSGGGG", "test": "bio-layer interferometry, truncated peptide panel", "experimental": "as §1"}, "[10]": {"molecular_target": "T10, SEQ ID NO 47 (also: biotinylated)", "T10 construct": "Truncation variant of the (G4S)4 linker; also called truncated G4S peptide", "T10 peptide": "GGGGSGGGGSGGGGSGGG", "test": "bio-layer interferometry, truncated peptide panel", "experimental": "as §1"}, "[11]": {"molecular_target": "T11, SEQ ID NO 48 (also: biotinylated)", "T11 construct": "Truncation variant of the (G4S)4 linker; also called truncated G4S peptide", "T11 peptide": "GGGGSGGGGSGGGGSGG", "test": "bio-layer interferometry, truncated peptide panel", "experimental": "as §1"}, "[12]": {"molecular_target": "T2, immobilized scFv containing a G4S linker", "test": "ELISA, scFv coated on the plate, anti-human Fc HRP detection", "procedure": "MaxiSorb 96 plates (Nunc; Roskilde, Denmark) were coated with antigen at 0.1 μg/mL concentration and incubated overnight at 4° C. Plates were washed 3 times with PBS and blocked with PBS plus 5% milk powder for 1 hour at room temperature. Plates were washed 3 times with PBS. […] Plates were washed 3 times with PBS. […] Optical density at 450 nm was measured on (SpectraMax M5, Molecular Devices; San Jose, Calif.). Data was analyzed in GraphPad Prism software (Graphpad)."}, "[13]": {"molecular_target": "T12, (G4S)4 peptide (biotinylated)", "T12 construct": "Biotinylated peptide immobilised on streptavidin biosensors for BLI; also called WT (G4S)4 peptide linker; WT G4S linker", "T12 peptide": "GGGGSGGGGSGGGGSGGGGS", "test": "bio-layer interferometry, biotinylated peptide on streptavidin sensor", "experimental": "as §1"}, "[14]": {"molecular_target": "T13, cell-surface scFv with a G4S linker (CAR-T construct on transfected HEK293T cells)", "T13 construct": "also called cell surface antigen; linker containing scFv protein construct", "test": "flow cytometry on HEK293T cells transfected with CAR-T constructs, fluorescent anti-human Fc detection", "procedure": "HEK293-T cells were cultured in standard DMEM with (Dulbecco's Modified Eagle's Medium Components comprising glucose, L-glutamine, NaHCO₃, and phenol red). Transfection of cells with mRNA for linker containing scFv protein constructs was carried out following manufacturer's protocol (MessengerMax, Invitrogen). 5 μg of IVT synthesized mRNA was transfected in HEK293-T cells at a density of 1×10⁶ cells/mL and incubated 24 hours prior to flow cytometry analysis. Cells were added to 96 well U bottom plates at a concentration of 100,000 cells/well. Plates were spun at 300 g for 3 minutes and supernatant was discarded. Sytox green (Invitrogen) Live/Dead stain was added to the cells and incubated for 10 minutes at room temperature in a dark chamber. The cells were washed twice with PBS, and the supernatant was discarded. A 12 point 1:3 serial dilution with a starting concentration of 100 nM of primary antibody was prepared. The dilution series was added to cells and incubated for 1 hour at 4° C. in the dark. Plates were spun at 300 g for 3 minutes, the supernatants discarded, and cells washed twice with FACS running buffer (Becton Dickinson (BD), Franklin Lakes, N.J.). Secondary antibody (Anti human Fc, Biolegend; San Diego, Calif.) was diluted in FACS buffer according to manufacturer's protocol. 50 μl of secondary antibody was added to the cells and incubated for 30 minutes at 4° C. in the dark. […]"}}, "note": "Ends that are not written are not given here.", "data": [{"binder": "B1", "values": [{"measurement": "Kd", "setting": "[1]", "result": 8.1, "unit": "nM"}, {"measurement": "Kd", "setting": "[2]", "result": 0.57, "unit": "nM"}, {"measurement": "fold decrease in binding affinity compared to WT G4S linker", "setting": "[3]", "result": 2, "unit": "fold"}, {"measurement": "fold decrease in binding affinity compared to WT G4S linker", "setting": "[4]", "result": 2, "unit": "fold"}, {"measurement": "fold decrease in binding affinity compared to WT G4S linker", "setting": "[5]", "result": 2, "unit": "fold"}, {"measurement": "fold decrease in binding affinity compared to WT G4S linker", "setting": "[6]", "result": 2, "unit": "fold"}, {"measurement": "fold decrease in binding affinity compared to WT G4S linker", "setting": "[7]", "result": 2, "unit": "fold"}, {"measurement": "fold decrease in binding affinity compared to WT G4S linker", "setting": "[8]", "result": 6, "unit": "fold"}, {"measurement": "fold decrease in binding affinity compared to WT G4S linker", "setting": "[9]", "result": 2, "unit": "fold"}, {"measurement": "fold decrease in binding affinity compared to WT G4S linker", "setting": "[10]", "result": 2, "unit": "fold"}, {"measurement": "fold decrease in binding affinity compared to WT G4S linker", "setting": "[11]", "result": 2, "unit": "fold"}, {"measurement": "EC50", "setting": "[12]", "result": 0.57, "unit": "nM"}, {"measurement": "Kd", "setting": "[13]", "result": 3.6, "unit": "nM"}, {"measurement": "EC50", "setting": "[14]", "result": 0.78, "unit": "nM"}]}]}
